Patent publication US20130052176, “APTAMER FOR NGF AND USE THEREOF” (SHIONOGI & CO., LTD, published 2013)

Legend:
[1] = biological target: T1, NGF (nerve growth factor) (human, UniProt P01138 P01138:122-241); test: cell_activity; neurite outgrowth, NGF 1.1 nM; SPR binding; blocks NGF-TrkA; TF-1 IC50 8.0 nM; conditions: tags: amine-coupled to CM5 chip in SPR; soluble in cell assays; chain copies: 2
Experimental: (§1) The neurite outgrowth inhibitory activity of the aptamer obtained in Example 1 was evaluated by using Neuroscreen-1 cell, which is a subclone of PC-12 cells.
(§2) The cells (2500 cells per well) were cultured for one day in an RPMI-1640 medium containing 2.5% horse serum and 1.25% fetal bovine serum in a 96 well flat-bottom plate coated with collagen type IV. […] Two days later, the cytoplasm and nuclei were stained using Cellomics Neurite Outgrowth Kit (manufactured by Thermo Scientific), and neurite length per cell was measured by Cellomics ArrayScan VTI (manufactured by Thermo Scientific). With the neurite length per cell obtained by the addition of NGF alone as inhibitory activity 0%, and that of the cell obtained by NGF free culture for 2 days as inhibitory activity 100%, the inhibitory activity of the aptamer was calculated from the neurite length per cell obtained by culturing with the addition of NGF and the aptamer in mixture. When the inhibitory activity was 0% or below, ‘0%’ is indicated.

[2] = biological target: T1, NGF (nerve growth factor); test: cell_activity; neurite outgrowth, NGF 1.1 nM; SPR binding; TF-1 IC50 6.3 nM; conditions: tags: amine-coupled to CM5 chip in SPR; soluble in cell assays; chain copies: 2
Experimental: as §1, §2

[3] = biological target: T1, NGF (nerve growth factor); test: cell_activity; neurite outgrowth, NGF 1.1 nM; SPR binding; blocks NGF-TrkA and NGF-p75; conditions: tags: amine-coupled to CM5 chip in SPR; soluble in cell assays; chain copies: 2
Experimental: as §1, §2

[4] = biological target: T1, NGF (nerve growth factor); test: cell_activity; neurite outgrowth, NGF 1.1 nM; SPR binding; blocks NGF-TrkA and NGF-p75; TF-1 IC50 1.3 nM; conditions: tags: amine-coupled to CM5 chip in SPR; soluble in cell assays; chain copies: 2
Experimental: as §1, §2

[5] = biological target: T1, NGF (nerve growth factor); test: cell_activity; neurite outgrowth, NGF 1.1 nM; SPR binding; TF-1 IC50 5.4 nM; conditions: tags: amine-coupled to CM5 chip in SPR; soluble in cell assays; chain copies: 2
Experimental: as §1, §2

[6] = biological target: T1, NGF (nerve growth factor); test: cell_activity; neurite outgrowth, NGF 1.1 nM; SPR binding; blocks NGF-TrkA and NGF-p75; TF-1 IC50 2.1 nM; conditions: tags: amine-coupled to CM5 chip in SPR; soluble in cell assays; chain copies: 2
Experimental: as §1, §2

NT-3 = biological target: T2, NT-3 (human, UniProt P20783 P20783:139-257); test: SPR; binding to NT-3 not observed; TF-1 IC50 >1000 nM; conditions: tags: R&D Systems; chain copies: 2
T2 sequence: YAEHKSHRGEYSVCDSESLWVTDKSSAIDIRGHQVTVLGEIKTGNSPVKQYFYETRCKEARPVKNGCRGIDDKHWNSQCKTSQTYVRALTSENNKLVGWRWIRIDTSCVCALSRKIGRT

[7] = biological target: T1, NGF (nerve growth factor); test: cell_activity; neurite outgrowth, NGF 0.38 nM; SPR binding; blocks NGF-TrkA and NGF-p75; TF-1 IC50 0.07 nM; conditions: tags: amine-coupled to CM5 chip in SPR; soluble in cell assays; chain copies: 2
[8] = biological target: T1, NGF (nerve growth factor); test: cell_activity; neurite outgrowth, NGF 0.38 nM; SPR binding; TF-1 IC50 0.128 nM; conditions: tags: amine-coupled to CM5 chip in SPR; soluble in cell assays; chain copies: 2
Experimental: as §1, §2

[9] = biological target: T1, NGF (nerve growth factor); test: cell_activity; neurite outgrowth, NGF 0.38 nM; SPR binding; TF-1 IC50 0.1 nM; conditions: tags: amine-coupled to CM5 chip in SPR; soluble in cell assays; chain copies: 2
[10] = biological target: T1, NGF (nerve growth factor); test: cell_activity; neurite outgrowth, NGF 0.38 nM; SPR binding; TF-1 IC50 0.074 nM; conditions: tags: amine-coupled to CM5 chip in SPR; soluble in cell assays; chain copies: 2
Experimental: as §1, §2

[11] = biological target: T1, NGF (nerve growth factor); test: cell_activity; neurite outgrowth, NGF 0.38 nM; SPR binding; TF-1 IC50 0.09 nM; conditions: tags: amine-coupled to CM5 chip in SPR; soluble in cell assays; chain copies: 2
Experimental: as §1, §2

[12] = biological target: T1, NGF (nerve growth factor); test: cell_activity; neurite outgrowth, NGF 0.38 nM; SPR binding; TF-1 IC50 0.100 nM; conditions: tags: amine-coupled to CM5 chip in SPR; soluble in cell assays; chain copies: 2
Experimental: as §1, §2

[13] = biological target: T1, NGF (nerve growth factor); test: cell_activity; neurite outgrowth, NGF 0.38 nM; SPR binding; TF-1 IC50 0.058 nM; conditions: tags: amine-coupled to CM5 chip in SPR; soluble in cell assays; chain copies: 2
[14] = biological target: T1, NGF (nerve growth factor); test: cell_activity; neurite outgrowth, NGF 0.38 nM; SPR binding; TF-1 IC50 0.081 nM; conditions: tags: amine-coupled to CM5 chip in SPR; soluble in cell assays; chain copies: 2

T1 sequence (P01138 122-241, one chain of several): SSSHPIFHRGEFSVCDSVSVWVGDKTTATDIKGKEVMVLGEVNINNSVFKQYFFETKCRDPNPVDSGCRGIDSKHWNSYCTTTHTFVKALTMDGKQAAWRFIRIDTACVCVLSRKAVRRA

B1: aptamer ID 55 (ssRNA)
RNA: GGGAUAAAAAUAGAGUUUGAUAAACACCUGUAUUAAAACCC
modifications: 5' cholesterol; 3' idT; 2'-F pyrimidines and a37,a38; 2'-OMe other purines except 2'-OH at 4,7,30
IC50 [1]: 9.8 nM

B2: aptamer ID 62 (mixed)
mixed: GGGAUAAAAAUAGAGTUUGATAAACACCUGUAUUAAAACCC
modifications: 5' cholesterol; 3' idT; 2'-F pyrimidines (except dT at 16,21) and a37; 2'-OMe other purines except 2'-OH at 4,7,30,38
IC50 [2]: 4.6 nM

B3: aptamer ID 56 (mixed)
mixed: GGGAUAAAAAUAGAGUUUGATAAACACCUGUAUUAAAACCC
modifications: 5' cholesterol; 3' idT; 2'-F pyrimidines (except dT at 21) and a37,a38; 2'-OMe other purines except 2'-OH at 4,7,30
IC50 [3]: 4.1 nM

B4: aptamer ID 61 (mixed)
mixed: GGGAUAAAAAUAGAGTUUGATAAACACCUGUAUUAAAACCC
modifications: 5' cholesterol; 3' idT; 2'-F pyrimidines (except dT at 16,21) and a38; 2'-OMe other purines except 2'-OH at 4,7,30,37
IC50 [4]: < 3 nM

B5: aptamer ID 60 (mixed)
mixed: GGGAUAAAAAUAGAGTUUGATAUACACCUGUAUUAAAACCC
modifications: 5' cholesterol; 3' idT; 2'-F pyrimidines (except dT at 16,21) and a37,a38; 2'-OMe other purines except 2'-OH at 4,7,30
IC50 [5]: < 3 nM

B6: aptamer ID 63 (mixed)
mixed: GGGAUAAAAAUAGAGTUUGATAAACACCUGUAUUAAAACCC
modifications: 5' cholesterol; 3' idT; 2'-F pyrimidines (except dT at 16,21); 2'-OMe other purines except 2'-OH at 4,7,30,37,38
IC50 [6]: < 3 nM

B7: aptamer ID 26(2) (ssRNA)
RNA: GGGAGACUCGCCAGAGUUGAAAGAAACCCAAAUAAGUGUGCGCAC
modifications: 2'-F pyrimidines; 2'-OMe purines except 2'-OH at 3,5,19-22,24,26; 5' idT and 3' idT
binding result (NT-3): no binding
IC50 [7]: 0.06 nM

B8: aptamer ID 26(43) (mixed)
RNA: GGGAGACUCGCCAGAGUUGAAAGAAACCCAAAUAAGUGUGCGCAC
modifications: 2'-F pyrimidines except dC at 7,9,11,12,29,45 and dT at 8,17,33,37; 2'-OMe purines except 2'-OH at 3,19,20,26; 5' idT and 3' idT
IC50 [8]: 0.073 nM

B9: aptamer ID 26(1) (ssRNA)
RNA: GGGAGACUCGCCAGAGUUGAAAGAAACCCAAAUAAGUGUGCGCAC
modifications: 2'-F pyrimidines; 2'-OMe purines except 2'-OH at 3,5,19-23,25; 5' idT and 3' idT
IC50 [9]: 0.06 nM

B10: aptamer ID 26(13) (ssRNA)
RNA: GGGAGACUCGCCAGAGUUGAAAGAAACCCAAAUAAGUGUGCGCAC
modifications: 2'-F pyrimidines; 2'-OMe purines except 2'-OH at 3,5,19,20,22,24,26; 5' idT and 3' idT
IC50 [10]: 0.039 nM

B11: aptamer ID 26(14) (ssRNA)
RNA: GGGAGACUCGCCAGAGUUGAAAGAAACCCAAAUAAGUGUGCGCAC
modifications: 2'-F pyrimidines; 2'-OMe purines except 2'-OH at 3,5,19-21,24,26; 5' idT and 3' idT
IC50 [11]: 0.082 nM

B12: aptamer ID 26(41) (mixed)
RNA: GGGAGACUCGCCAGAGUUGAAAGAAACCCAAAUAAGUGUGCGCAC
modifications: 2'-F pyrimidines except dC at 29 and dT at 37; 2'-OMe purines except 2'-OH at 3,19,20,26; 5' idT and 3' idT
IC50 [12]: 0.104 nM

B13: aptamer ID 26(11) (ssRNA)
RNA: GGGAGACUCGCCAGAGUUGAAAGAAACCCAAAUAAGUGUGCGCAC
modifications: 2'-F pyrimidines; 2'-OMe purines except 2'-OH at 3,5,19-22; 5' idT and 3' idT
IC50 [13]: 0.087 nM

B14: aptamer ID 26(15) (ssRNA)
RNA: GGGAGACUCGCCAGAGUUGAAAGAAACCCAAAUAAGUGUGCGCAC
modifications: 2'-F pyrimidines; 2'-OMe purines except 2'-OH at 3,5,19,20,24,26; 5' idT and 3' idT
IC50 [14]: 0.067 nM
